This sample holds only a part of the variants without activity.
B1: TPR 5TU (parent)
chain: GGAUCUUCUCGAUCUAACAAAAAAGACAAAUCUGCCACAAAGCUUGAGAGCAUCUUCGGAUGCAGAGGCGGCAGCCUUCGGUGGCGCGAUAGCGCCAACGUUCUCAACUAUGACACGCAAAACGCGUGCUCCGUUGAAUGGAGUUUAUCAUG

Variants of: B1
Test: polymerase ribozyme fitness, log enrichment relative to wild type (log ratio); higher = more active; in vitro selection for triplet polymerase activity
Outline: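 Libraries of mutants in each subunit of a heterodimeric triplet polymerase ribozyme were generated by PCR and transcribed. In triplicate, each went through one in vitro selection round: annealing with biotinylated primer, partner subunit and triplets; frozen incubation at −7 °C; gel excision of extended constructs; streptavidin-bead capture; RT-PCR. Fitness, taken from Illumina sequencing of input and output libraries, is the logarithm of a genotype's enrichment over wild-type enrichment, averaged across replicates with inverse-variance weights. The logarithm is base 2, and genotypes needed ≥10 input reads and ≥1 read per output to be kept.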

Variant	polymerase ribozyme fitness (log ratio)
C8G A29U A41G U61A G68A U82C A89G C116U	≤ -4.2
U9C A12C A20G U53A A73U G92U C114A A121U G140A U151A	≤ -4.2
C8A U31C A41U G58A G71A C76U C125U A142G	≤ -4.2
U6G A26U G84C	-2.97
C8U A17G A21U C57U G80A C96G	≤ -4.2
U6G U13G A41U A52C G133U A138G U148G	≤ -4.2
U7A C18A U33G A66U G84A G100A G124C	≤ -4.2
U7C G50A A66G	≤ -4.2
U9A G25C C38U G71U U135C A147G	≤ -4.2
C8U A17G A30U C95U G126A U148G	≤ -4.2
C8U A30U C32U A64G C76A A97G A107U C108U A110G C116A	-4.12
C8A C14G U55A C85U G88U A138U	≤ -4.2
C8G G67C G92U C99U A107U U148A	≤ -4.2
U7C C10U A40C C85A A89C G100A C116A	≤ -4.2
C8G C35U G46C C72U G74U C96U A107G	≤ -4.2
U6G G94C C123A	0.0628
C8U U33A C38U G62A	≤ -4.2
U9A C76A C85U G100C U104G A115U	≤ -4.2
U7C C38U C87A A122U	≤ -4.2
U6G U33C U77C G80C C85G G86A G112U A120G U151C	≤ -4.2
U9C G58C A91G C105G A110G	≤ -4.2
U9C C43G G65A G67C C95A	-4.09
U6G C79A G84C G152A	≤ -4.2
U9G A29U U45G C75A G88U C96A G141A	≤ -4.2

Variant	polymerase ribozyme fitness (log ratio)
C8G G70C C93U C99U U148G	≤ -4.2
U7C A21C U33G C43U G62A C87U	≤ -4.2
U9C U13A U15A C76U G86U	-4.11
U9A A26U G92U A142U	≤ -4.2
U9A C87A	≤ -4.2
U9C C14U C57G C93G G140U	≤ -4.2
C8U C35U A41C G58C G68U G86U C114A G140A	≤ -4.2
C8U A16U A21C G67U C87U	≤ -4.2
U7C U31A G46A G59C C85G C118U	≤ -4.2
U9C C85U	-3.24
C8A C85G C103U A110G U134G C149G	≤ -4.2
C8A A20U G42C C43G U44A A113U A142C	≤ -4.2
U7A A24C A47C U109C A120U	≤ -4.2
U6G A47U U61G C69A	≤ -4.2
C8U C93A	≤ -4.2
C8G C32U G80U	-4.14
U9A A39U U61A C76U C93A A120U G141A	≤ -4.2
C8U A52G	-3.63
U7G U15G U56G C93A A115C U130G	≤ -4.2
U6G C10G	-3.01
U7G A64C A122G	≤ -4.2
U9A A21U	-3.81
U9A A12U C85U G88C U148G	≤ -4.2
U6G U45A C57U G67C C95G C99U	≤ -4.2

Variant	polymerase ribozyme fitness (log ratio)
C8U C10G C35G C57A A66U G86U U134C U139C U148A	≤ -4.2
U7G C10U C35U A64G C96A C129A	≤ -4.2
C8A A26U	-3.66
U6G G11A	-0.786
U6G C35G C95A C99U U102A U111C	≤ -4.2
U7A C10G U55A C72U G94A U151A	≤ -4.2
C8A U53A A73U G74U G92U A142U G143A	≤ -4.2
C8U A29G G62A C93U C95A U144A	≤ -4.2
U7C U53G G86C A106G A150C	≤ -4.2
U7C U15G A41U A52G C96A	-3.52
C8U C79A G92A C105A	≤ -4.2
U9A A64G A89U G92A C131G	≤ -4.2
C8G G50A A66C G84A	≤ -4.2
U6G G50C U56A G65A A73C C96U U139C	≤ -4.2
C8U C93U C99G	≤ -4.2
U7A C36U C95G	≤ -4.2
C8G U15C A52G C57G G59U C87G	-3.95
U9A A16U U56A G84A C131U	≤ -4.2
C8A U31G A37G G42A G83A	≤ -4.2
U6G A28U A41G G88C G143A U144C U146G	≤ -4.2
C8U U56G G59A G65A G84U A91G	≤ -4.2
C8U A52U C54U G83A C118A U127G	≤ -4.2
U7A C14G A29G C35G C36A G74A A91U C96A	≤ -4.2
C8A A12U U15G G62U G124A	≤ -4.2

Variant	polymerase ribozyme fitness (log ratio)
U7A A29G G67A C69U G80C C103G U104C C105U G136A G140U	≤ -4.2
U7A A29C A60U C76G C95U G133A G141A	≤ -4.2
C8G C63U G68A G92A A107U A142G	≤ -4.2
U9C A26U C38U C54A A66C U78A A89C A97G	≤ -4.2
C8A A40U C57U U78A A119C	≤ -4.2
C8A A12G A41C A47G U53A G143U U151C	≤ -4.2
C8A U53A	-3.45
C8A G86A	-3.76
C8A A49G G71A C93U G152A	≤ -4.2
C8G A22U C85U C103U	≤ -4.2
C8U G11C A23C A60G G94U G136U U144A	≤ -4.2
C8U C14G G50C A106U A110G	≤ -4.2
U6G G88A	-4.11
U7A G58C	-3.68
U6G A26U C93U	-2.39
U9G A17G A52U C75G G84A C105U	≤ -4.2
C8U C14G U33G C51G C54U C57A U77G C87G G136U	≤ -4.2
U9C A40C U45A G65C C85A U111G A113U C118G	≤ -4.2
U9C C18U G71C U82A C85G U146G A150C	≤ -4.2
U7A A26U C32G A49C G50A G83U	≤ -4.2
U7G A24C C43A A47G C75U C85A G86A C103G	≤ -4.2
C8U C87A	≤ -4.2
C8U A52U U56A U61A C75U C93U C99G C132G	≤ -4.2
C8G A22G U44A A52C A73C C125G	≤ -4.2

Variant	polymerase ribozyme fitness (log ratio)
C8U C35U G80A G83A U102G U145C U146C	≤ -4.2
U7C U45G G83C G128U C132G A147C	≤ -4.2
C8U G92C U111C	≤ -4.2
U6G A26C G83U A89U	-3.85
U9A C93G	≤ -4.2
U6G C8G C18U C54U C131U	-3.56
U7C G48U G84A G117C	≤ -4.2
U7G C57U G59C G88A C93A A115C	≤ -4.2
C8A A22C C35U G48C A73U	≤ -4.2
U6G C8G	-3.65
C8G A52G	-3.17
U7G C27A C93U A107G A150U	≤ -4.2
U9G A19C A23G A39G C93G U139A G152U	≤ -4.2
C8A C10G G50U C51G U56G C57G G62A G86A	≤ -4.2
C8A U31A U56G C63A G68U C99A G128U	≤ -4.2
U6G C35U C76A C87U	-2.63
U7G G34U A60U C93U A107U	≤ -4.2
C8G A41U A49C G62A C79U C85U C96U C114G A115G	≤ -4.2
C8U A20C A49G U53A C95A A106G C118G	≤ -4.2
U7G C27U G48C G59C C76U C79A G83U C93A	≤ -4.2
U6G C18G A66C G68C G88C G152C	≤ -4.2
U9G A21U C35U U55A C108U C118U G128A G133A	≤ -4.2
U6G C38U U44A G81C A120C G140U	≤ -4.2
U9C A37U G92A U102G C108U	≤ -4.2

Variant	polymerase ribozyme fitness (log ratio)
C8U C95U	-2.24
C8U A49U A52G	-3.79
U9A U15G G50C G94A U135C G143A	≤ -4.2
U9G A21U A24G C72U A147C	≤ -4.2
C8A A20G G68C C85A G126A	≤ -4.2
C8U G50U G71C C85G	≤ -4.2
U7G A20C U56G U146G	-3.82
U9A C10G G48U C63G C85A A137G G141U	≤ -4.2
U7G C93G U139A	≤ -4.2
U7C C8G A30C C85G U134A	≤ -4.2
C8A C14G	-3.51
C8A G34C U45A G50A U55A G74A A91G U102G G140C G141A	≤ -4.2
C8G C43G A52G C93G C114G A121G	≤ -4.2
U7G C14G A52C U55C G80A G86U C87A	≤ -4.2
U7C G25U U31C G62C C75U G117U A122G	≤ -4.2
C8G A41U U55G U56A G65A G70C U78A G81A C93A A122U	≤ -4.2
U7G C75G G84A G141A	≤ -4.2
U9A A16U C57U G70A C79A G88U C95U A119U U151A	≤ -4.2
U7G A23G C32A A115G	≤ -4.2
C8A C114G A142C	≤ -4.2
U6G G50U C85U C116U G152U	-3.7
C8U A39G G86U U102C U111G U144C G152A	≤ -4.2
U7C C27G C57G G88C G124A U134G	≤ -4.2
C8G A28G U61A U104A A110U A120G A138C	≤ -4.2

Variant	polymerase ribozyme fitness (log ratio)
U7G A17C A24U A52G A64G C72G C85U G88U G92U C93G A119U	≤ -4.2
C8A C27U G70A C96U	≤ -4.2
U7G A22U C43U C93A A142G	≤ -4.2
C8A G50U G74C G80A C85U U139C G141C	≤ -4.2
C8G C57A G84U C114U U148C A150C	≤ -4.2
U6G A120C G136C	-3.69
C8G U13A U33G G71A G74A C87G C96A C105A	≤ -4.2
U6G G80A U82G G141U	0.34
C8U U13A A40C U44G C93G	≤ -4.2
U7G A21U C54A A66C A91C G136A	≤ -4.2
U7C A23G A49U U56G G84U G86U A137U	≤ -4.2
U9A C75G C85G C95G	≤ -4.2
C8G C96U	-3.47
U9C C10G	-4.15
C8U G67A U82G U90G C96A C105A C116A C125U U135A A147C U148G	≤ -4.2
C8G U13G A40C U77A G94A A97C C99U A113G G117U U139G U144G	≤ -4.2
U7A U45C G50U G83A A89U G94C A115U G141A	≤ -4.2
C8A C14U A16U U33G A47U C57A C93A A142U	≤ -4.2
U6G A41G G48U C54U A122U	-0.949
U9A C38A C72A G84A C125U	≤ -4.2
C8A U44C C79G G86C G140U	≤ -4.2
U7G	-2.22
U7A	-2.18

— the RNAGym collection of RNA variant scans (doi:10.1073/pnas.2313332121)
